According to patent US20100160228A1 (VALTION TEKNILLINEN TUTKIMUSKESKUS, published 2010):

Target: T1, VEGFR1, stably expressed in PAE cells (PAE-Flt1) (UniProt P17948 27-1338, limits assumed)
T1 construct: whole, on cells
Test: co-immunoprecipitation with anti-TCPTP from PAE-Flt1 cells transfected with the substrate-trapping mutant, immunoblot
Protocol: Immunoprecipitations. […] After washings, the immunocomplexes were resolved on SDS-PAGE and subjected to immunoblotting. Aliquots of the original lysates (5% from IP input) were analyzed in parallel to control for protein expression.

T1 sequence (P17948 27-1338 limits assumed): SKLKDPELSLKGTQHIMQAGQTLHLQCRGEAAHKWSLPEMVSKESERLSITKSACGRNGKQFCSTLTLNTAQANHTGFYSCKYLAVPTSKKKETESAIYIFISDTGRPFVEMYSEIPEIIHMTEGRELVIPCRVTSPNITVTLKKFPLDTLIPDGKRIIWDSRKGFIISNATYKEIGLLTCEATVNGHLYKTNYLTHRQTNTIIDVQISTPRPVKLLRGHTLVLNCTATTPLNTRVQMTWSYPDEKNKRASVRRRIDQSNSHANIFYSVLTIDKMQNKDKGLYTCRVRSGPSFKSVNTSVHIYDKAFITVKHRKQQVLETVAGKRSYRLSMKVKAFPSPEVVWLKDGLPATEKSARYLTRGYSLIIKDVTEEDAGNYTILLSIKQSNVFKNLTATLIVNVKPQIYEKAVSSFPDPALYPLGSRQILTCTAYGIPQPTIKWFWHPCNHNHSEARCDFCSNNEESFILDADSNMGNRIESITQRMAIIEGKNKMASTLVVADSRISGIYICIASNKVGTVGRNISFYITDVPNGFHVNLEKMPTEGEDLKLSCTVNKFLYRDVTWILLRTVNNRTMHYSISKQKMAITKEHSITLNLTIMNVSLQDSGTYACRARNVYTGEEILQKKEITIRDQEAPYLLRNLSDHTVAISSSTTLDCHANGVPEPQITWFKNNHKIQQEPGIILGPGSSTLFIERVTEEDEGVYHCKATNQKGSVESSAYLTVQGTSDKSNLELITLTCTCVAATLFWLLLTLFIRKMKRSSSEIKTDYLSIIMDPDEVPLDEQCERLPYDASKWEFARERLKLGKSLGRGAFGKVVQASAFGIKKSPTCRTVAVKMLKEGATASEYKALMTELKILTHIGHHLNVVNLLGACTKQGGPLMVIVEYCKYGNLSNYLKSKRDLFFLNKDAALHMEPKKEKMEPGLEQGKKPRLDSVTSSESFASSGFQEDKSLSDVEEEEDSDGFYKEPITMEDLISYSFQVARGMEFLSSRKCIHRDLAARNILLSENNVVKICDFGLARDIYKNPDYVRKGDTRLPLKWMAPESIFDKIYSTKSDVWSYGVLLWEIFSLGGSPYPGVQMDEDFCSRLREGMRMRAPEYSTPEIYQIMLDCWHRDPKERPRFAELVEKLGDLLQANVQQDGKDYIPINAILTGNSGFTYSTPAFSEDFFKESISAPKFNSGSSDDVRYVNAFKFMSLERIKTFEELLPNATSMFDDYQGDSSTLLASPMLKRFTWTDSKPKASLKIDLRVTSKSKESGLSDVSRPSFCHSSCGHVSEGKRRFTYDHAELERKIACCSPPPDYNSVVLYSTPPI

B1: substrate-trapping mutant of TCPTP (TCPTP-D182A) (enzyme, UniProt P17706-2 1-387, looked up)
chain: MPTTIEREFEELDTQRRWQPLYLEIRNESHDYPHRVAKFPENRNRNRYRDVSPYDHSRVKLQNAENDYINASLVDIEEAQRSYILTQGPLPNTCCHFWLMVWQQKTKAVVMLNRIVEKESVKCAQYWPTDDQEMLFKETGFSVKLLSEDVKSYYTVHLLQLENINSGETRTISHFHYTTWPAFGVPESPASFLNFLFKVRESGSLNPDHGPAVIHCSAGIGRSGTFSLVDTCLVLMEKGDDINIKQVLLNMRKYRMGLIQTPDQLRFSYMAIIEGAKCIKGDSSIQKRWKELSKEDLSPAFDHSPNKIMTEKYNGNRIGLEEEKLTGDRCTGLSSKMQDTMEENSESALRKRIREDRKATTAQKVQQMKQRLNENERKRKRPRLTDT
notes: Expressed by transient transfection in HEK293 or PAE-Flt1 cells and immunoprecipitated from lysates with anti-TCPTP; also called pCG-TC45-D182A; T-cell protein tyrosine phosphatase D182A
B1: no binding.
